Results on 66 molecules are retold here after patent publication US20200087364A1 (IMMATICS BIOTECHNOLOGIES, published 2020).

Some results are limits rather than exact numbers.

B1: YADIHGDLL (peptide)
peptide: YADIHGDLL
B2: GVGFTELEY (peptide)
peptide: GVGFTELEY
B3: GTNLPTLLW (peptide)
peptide: GTNLPTLLW
B4: LMTVLLKY (peptide)
peptide: LMTVLLKY
B5: KSEMNVNMKY (peptide)
peptide: KSEMNVNMKY
B6: HAFESNNFIY (peptide)
peptide: HAFESNNFIY
B7: ETILVSSSY (peptide)
peptide: ETILVSSSY
B8: ARLEGEIATY (peptide)
peptide: ARLEGEIATY
B9: KPTEDSANVY (peptide)
peptide: KPTEDSANVY
B10: VLPHHSEGACVY (peptide)
peptide: VLPHHSEGACVY
B11: PSEVPVDSHY (peptide)
peptide: PSEVPVDSHY
B12: LLPLLVMAY (peptide)
peptide: LLPLLVMAY
B13: AQEAAVFLTLY (peptide)
peptide: AQEAAVFLTLY
B14: FLFNDALLY (peptide)
peptide: FLFNDALLY
B15: AILHHLYFY (peptide)
peptide: AILHHLYFY
B16: VTKYIAGPY (peptide)
peptide: VTKYIAGPY
B17: CVIETFHKY (peptide)
peptide: CVIETFHKY
B18: VAEPPVVCSY (peptide)
peptide: VAEPPVVCSY
B19: TTEMVSNESVDY (peptide)
peptide: TTEMVSNESVDY
B20: VTDIDELGK (peptide)
peptide: VTDIDELGK
B21: PSEVPVDSHYY (peptide)
peptide: PSEVPVDSHYY
B22: YRDPVFVSL (peptide)
peptide: YRDPVFVSL
B23: NLDHYTNAY (peptide)
peptide: NLDHYTNAY
B24: ASDDFRSKY (peptide)
peptide: ASDDFRSKY
B25: QAMPSWPTAAY (peptide)
peptide: QAMPSWPTAAY
B26: LTSEDTGAY (peptide)
peptide: LTSEDTGAY
B27: SMIRVGTNY (peptide)
peptide: SMIRVGTNY
B28: ESDEMENLLTY (peptide)
peptide: ESDEMENLLTY
B29: YPDLSELLM (peptide)
peptide: YPDLSELLM
B30: EVLDSLLAQY (peptide)
peptide: EVLDSLLAQY
B31: MTEGSTVNTEY (peptide)
peptide: MTEGSTVNTEY
B32: IPQDECLRY (peptide)
peptide: IPQDECLRY
B33: ENSIEDLQY (peptide)
peptide: ENSIEDLQY
B34: AMMQEAQLAY (peptide)
peptide: AMMQEAQLAY
B35: DTTSHTYLQY (peptide)
peptide: DTTSHTYLQY
B36: AATVKSDIY (peptide)
peptide: AATVKSDIY
B37: NVKHFLNDLY (peptide)
peptide: NVKHFLNDLY
B38: LSDIDSRYI (peptide)
peptide: LSDIDSRYI
B39: YLESHGLAY (peptide)
peptide: YLESHGLAY
B40: WELDSLEY (peptide)
peptide: WELDSLEY
B41: KSFDDIAKY (peptide)
peptide: KSFDDIAKY
B42: GYVCNACGLY (peptide)
peptide: GYVCNACGLY
B43: LTDSFLLRF (peptide)
peptide: LTDSFLLRF
B44: SLMVASLTY (peptide)
peptide: SLMVASLTY
B45: QITSFASGTSY (peptide)
peptide: QITSFASGTSY
B46: SIEIDHTQY (peptide)
peptide: SIEIDHTQY
B47: DTDPLKAAGL (peptide)
peptide: DTDPLKAAGL
B48: RINSATGQY (peptide)
peptide: RINSATGQY
B49: CGPNEINHFY (peptide)
peptide: CGPNEINHFY
B50: APDEVVALL (peptide)
peptide: APDEVVALL
B51: LPAPGFLFY (peptide)
peptide: LPAPGFLFY
B52: GIEMTYETY (peptide)
peptide: GIEMTYETY
B53: VLDSLLAQY (peptide)
peptide: VLDSLLAQY
B54: RYLNIVHATQLY (peptide)
peptide: RYLNIVHATQLY
B55: ATDMEGNLNY (peptide)
peptide: ATDMEGNLNY
B56: YTDLTTIQV (peptide)
peptide: YTDLTTIQV
B57: RPSSVLTIY (peptide)
peptide: RPSSVLTIY
B58: MTDVFIDY (peptide)
peptide: MTDVFIDY
B59: SSERGSPIEKY (peptide)
peptide: SSERGSPIEKY
B60: DLKIDLAAQY (peptide)
peptide: DLKIDLAAQY
B61: TCSHTFVYY (peptide)
peptide: TCSHTFVYY
B62: LPSPAATIWDY (peptide)
peptide: LPSPAATIWDY
B63: ETDWGLLKGHTY (peptide)
peptide: ETDWGLLKGHTY
B64: DCMDTEGSYM (peptide)
peptide: DCMDTEGSYM
B65: LSDNAANRY (peptide)
peptide: LSDNAANRY
B66: IVADDTVY (peptide)
peptide: IVADDTVY

This test deals with T1, HLA-A*01:01 (human).
T1 construct: MHC class I monomer first loaded with a UV-sensitive peptide (not identified) that is cleaved by UV irradiation and exchanged for the tested peptide; captured on streptavidin plates, detected with anti-β2m; also called peptide-receptive MHC molecules
The test can be described thus: UV-ligand exchange, anti-b2m ELISA. Put shortly: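 Peptide–MHC complexes made by UV-ligand exchange of a UV-cleavable peptide; exchange yield measured by ELISA on streptavidin-coated plates, samples diluted 100-fold, 1 h 37 °C. Detection with 2 ug/ml HRP anti-β2m, TMB, A450; refolded HLA-A*02:01/MLA-001 monomer standards 15-500 ng/ml.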
For B1, the peptide exchange yield lay in the range of 50 to 75%.
Turning to B2, the peptide exchange yield is 50 to 75%.
Molecule B3 registered a peptide exchange yield of 10 to 20%.
With B4, the peptide exchange yield was in the range of 50 to 75%.
In turn, B5 came in with a peptide exchange yield above 75%.
In turn, B6 yielded a peptide exchange yield of 20 to 50%.
Regarding B7, the peptide exchange yield was in the range of 20 to 50%.
In turn, B8 came in with a peptide exchange yield of 20 to 50%.
With B9 the figure was 50 to 75%; with B10, 50 to 75%; with B11, above 75%.
Then B12, with 20 to 50%; and B13, with 50 to 75%; and B14, with above 75%.
With B15, the peptide exchange yield is 10 to 20%.
In the case of B16, the peptide exchange yield fell in the range of 20 to 50%.
B17 displayed a peptide exchange yield of 50 to 75%.
Then B18, with 20 to 50%; and B19, with above 75%; and B20, with 50 to 75%.
Regarding B21, the peptide exchange yield fell in the range of 50 to 75%.
With B22, the peptide exchange yield lay in the range of 20 to 50%.
Molecule B23 yielded a peptide exchange yield of 50 to 75%.
B24 showed a peptide exchange yield of 50 to 75%.
As for B25, the peptide exchange yield lay within 20 to 50%.
B26 had a peptide exchange yield of 50 to 75%.
B27 gave a peptide exchange yield of 20 to 50%.
Consider B28, for which the peptide exchange yield fell in the range of 50 to 75%.
Molecule B29 showed a peptide exchange yield of 20 to 50%.
Then B30, with 20 to 50%; and B31, with above 75%; and B32, with 50 to 75%.
Turning to B33, the peptide exchange yield was 50 to 75%.
As to B34, the peptide exchange yield was in the range of 50 to 75%.
With B35 the figure was 20 to 50%.
Then B36, with 20 to 50%; and B37, with 50 to 75%.
Turning to B38, the peptide exchange yield was 20 to 50%.
For the molecule B39, the peptide exchange yield is above 75%.
The molecule B40 showed a peptide exchange yield of 20 to 50%.
Then B41, with 20 to 50%.
Regarding B42, the peptide exchange yield is 20 to 50%.
Then B43, with above 75%; and B44, with 20 to 50%.
B45: the peptide exchange yield was 50 to 75%.
In turn, B46 returned a peptide exchange yield of 20 to 50%.
As to B47, the peptide exchange yield is 10 to 20%.
The molecule B48 displayed a peptide exchange yield of 20 to 50%.
Molecule B49 returned a peptide exchange yield of 20 to 50%.
As to B50, the peptide exchange yield lay within 20 to 50%.
Consider B51, for which the peptide exchange yield lay within 20 to 50%.
As to B52, the peptide exchange yield is 20 to 50%.
For B53, the peptide exchange yield was above 75%.
As for B54, the peptide exchange yield fell in the range of 20 to 50%.
Molecule B55 displayed a peptide exchange yield of 50 to 75%.
Take B56: the peptide exchange yield was above 75%.
B57: the peptide exchange yield lay in the range of 50 to 75%.
With B58 the figure was 50 to 75%.
Molecule B59 had a peptide exchange yield of 50 to 75%.
Regarding B60, the peptide exchange yield is 20 to 50%.
Molecule B61 displayed a peptide exchange yield of 20 to 50%.
Consider B62, for which the peptide exchange yield lay in the range of 50 to 75%.
Then B63, with above 75%; and B64, with 20 to 50%.
With B65, the peptide exchange yield is 50 to 75%.
B66 showed a peptide exchange yield of 50 to 75%.
